One may read the Kd as a measure of binding affinity in units of concentration. Read a high Kd as lower affinity. In general, koff refers to the first-order rate constant of dissociation. Low values mean a long-lived complex, high ones a short-lived complex. A word on the kon: it is the rate constant with which the complex forms. Lower therefore signals slower complex formation.

Data on 1 molecule can be found in patent publication US20250340666A1 (REGENTS OF THE UNIVERSITY OF COLORADO A BODY CORPORATE, published 2025).

Experiment [1] addresses T1, human CD99 (human, UniProt P14209 23-185).
T1 construct: whole, on cells; Endogenous CD99 on patient-derived DIPG cells (flow cytometry) and DIPG tumor tissue sections (IHC); also called MIC2/CD99; cell surface CD99 protein
T1 sequence (looked up): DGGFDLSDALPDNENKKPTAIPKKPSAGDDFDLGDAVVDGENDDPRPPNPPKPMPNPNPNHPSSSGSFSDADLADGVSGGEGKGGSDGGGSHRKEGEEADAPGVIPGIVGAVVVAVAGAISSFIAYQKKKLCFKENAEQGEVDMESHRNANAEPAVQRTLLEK
As to the kind of experiment: flow cytometry on DIPG cells: pre-incubation with 10D1-CD99 antibody, then detection of CD99 with the commercial 0662 CD99 antibody (the competitor). The protocol:
The engagement/binding of the presently disclosed 10D1-CD99 antibody to the human CD99 epitope was tested.
In general terms: In flow cytometry, cells or beads pass a laser one at a time.

Experiment [2] deals with T2, CD99 epitope peptide antigen (15 amino acid sequence, SEQ ID NO: 1) (human).
T2 construct: It was used with an SA (streptavidin) biosensor
T2 peptide: DGENDDPRPPNPPKC
Put plainly: BLI, OctetRED 384, SA biosensor. The protocol: The affinity of one embodiment of the disclosed anti-CD99 antibody was tested against the CD99 epitope. Specifically, the epitope was a peptide antigen and the anti-CD99 antibody was the embodiment of 10D1-1 human IgG4/light chain1. As shown in FIG. 20. affinity was analyzed using an SA biosensor, and association and dissociation constants were monitored using OctetRED 384. […] 400 pM, 350 pM, 300 pM, 250 pM, 200 pM, 150 pM, 100 pM, 90 pM, 80 pM, 70 pM. 60 pM, 50 pM, 40 pM, 30 pM, 20 pM, or 10 pM, and less than about 1 pM, 10 pM, 50 pM, 100 pM, 200 pM, 300 pM, 400 pM, 500 pM, 600 pM. 700 pM, 800 pM, or900 pM.
Background: Biolayer interferometry detects binding as a change in optical thickness at a sensor tip.

B1: 10D1-CD99 antibody (antibody, V domains shown)
VH: EVQLQQSGPELVKPGASVKISCKASGYSFTGYYMHWVKQSHVKSLEWIGRINPYTGATTYNQIFKDKATLTLDKSSSTAYMELHSLTSEDSAIFYCARYYYGNNYNVYLDYWGQGTTLTVSS
VL: DIQLTQTTSSLSASLGDRVTISCSASQGISNYLSWYQQKPDGTFKLLIYYTSTLHSGVPSRFSGSGSGTDYSLTISNLEPEDIATYYCQQYSNLPWTFGGGTRLEIK
notes: also called rh10D1 anti-CD99 antibody; rh10D1-CD99
Regarding B1, the binding result in experiment [1] is given as “binds”. In experiment [2], this molecule yielded an equilibrium dissociation constant (Kd) of 0.436 nM, a koff of 0.000744 s⁻¹ and a kon of roughly 1.71e+06 M⁻¹ s⁻¹.
